Laboratory results: paper PMC9062482, “Structural and genome-wide analyses suggest that transposon-derived protein SETMAR alters transcription and splicing”
Numbering of substitutions follows the chain as printed.

What was measured:
[1] = molecular target: SETMAR DNA-binding domain, residues 329 to 440 (C381R) (I359M) (L423M) (human); assay: crystal structure; SETMAR DBD 329-440 (C381R, I359M, L423M) with brominated 25-mer TIR DNA duplex, protein:DNA 1:1.2, 50 mM Hepes pH 7.5, 150 mM NaCl, 1 mM DTT; hanging drops at 20 °C, 0.1 M magnesium formate, 15% PEG3350; 2.37 Å
[2] = molecular target: T1, SETMAR full-length WT (Homo sapiens, UniProt Q53H47 14-684); assay: fluorescence anisotropy; 10 nM probe; mutant comparison series; FA and competition: 50 mM Hepes pH 7.0, 150 mM NaCl, 1 mM DTT; temperature not stated. Crystals: 50 mM Hepes pH 7.5, 150 mM NaCl, 1 mM DTT; 0.1 M Mg formate, 15% PEG3350, 20 C; settings: protein: recombinant; chain copies: 2; label: 5' rhodamine (C6 amino) on strand 2; blunt
T1 sequence: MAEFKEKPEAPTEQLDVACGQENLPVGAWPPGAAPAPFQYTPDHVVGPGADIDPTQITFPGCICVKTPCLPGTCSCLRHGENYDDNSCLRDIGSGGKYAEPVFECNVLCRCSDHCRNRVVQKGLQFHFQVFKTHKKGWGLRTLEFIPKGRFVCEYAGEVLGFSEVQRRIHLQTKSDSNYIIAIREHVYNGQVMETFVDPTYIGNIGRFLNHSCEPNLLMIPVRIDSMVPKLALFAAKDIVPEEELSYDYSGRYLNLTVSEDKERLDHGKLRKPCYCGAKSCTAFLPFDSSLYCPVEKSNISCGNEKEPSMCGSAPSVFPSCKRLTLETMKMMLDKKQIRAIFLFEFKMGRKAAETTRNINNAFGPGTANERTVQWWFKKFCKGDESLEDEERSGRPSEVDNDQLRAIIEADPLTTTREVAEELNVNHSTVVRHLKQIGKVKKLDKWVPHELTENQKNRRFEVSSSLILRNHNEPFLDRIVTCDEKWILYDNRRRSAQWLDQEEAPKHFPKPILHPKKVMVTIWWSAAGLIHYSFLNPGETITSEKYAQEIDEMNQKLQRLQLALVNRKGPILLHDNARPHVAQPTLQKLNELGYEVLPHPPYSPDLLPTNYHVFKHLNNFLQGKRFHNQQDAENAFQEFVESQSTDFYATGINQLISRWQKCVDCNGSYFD

[3] = molecular target: T2, SETMAR R371A (Homo sapiens, UniProt Q53H47 14-684, R384A); assay: fluorescence anisotropy; 10 nM probe; FA and competition: 50 mM Hepes pH 7.0, 150 mM NaCl, 1 mM DTT; temperature not stated. Crystals: 50 mM Hepes pH 7.5, 150 mM NaCl, 1 mM DTT; 0.1 M Mg formate, 15% PEG3350, 20 C; settings: protein: recombinant; chain copies: 2; label: 5' rhodamine (C6 amino) on strand 2; blunt
T2 sequence: T1 sequence with R371A

[4] = molecular target: T3, SETMAR S428A (Homo sapiens, UniProt Q53H47 14-684, S441A); assay: as above; settings: protein: recombinant; chain copies: 2; label: 5' rhodamine (C6 amino) on strand 2; blunt
T3 sequence: T1 sequence with S428A

[5] = molecular target: T4, SETMAR R432A (Homo sapiens, UniProt Q53H47 14-684, R445A); assay: as above; settings: protein: recombinant; chain copies: 2; label: 5' rhodamine (C6 amino) on strand 2; blunt
T4 sequence: T1 sequence with R432A

[6] = molecular target: T1, SETMAR full-length WT; assay: fluorescence anisotropy; 20 nM probe; FA and competition: 50 mM Hepes pH 7.0, 150 mM NaCl, 1 mM DTT; temperature not stated. Crystals: 50 mM Hepes pH 7.5, 150 mM NaCl, 1 mM DTT; 0.1 M Mg formate, 15% PEG3350, 20 C; settings: protein: recombinant; chain copies: 2; label: 5' rhodamine (C6 amino) on strand 2; blunt
[7] = molecular target: T1, SETMAR full-length WT; assay: competition (fluorescence anisotropy); 300 nM protein, 20 nM probe; FA and competition: 50 mM Hepes pH 7.0, 150 mM NaCl, 1 mM DTT; temperature not stated. Crystals: 50 mM Hepes pH 7.5, 150 mM NaCl, 1 mM DTT; 0.1 M Mg formate, 15% PEG3350, 20 C; settings: protein: recombinant; chain copies: 2; blunt
[8] = molecular target: T5, SETMAR DBD C381R I359M L423M (SeMet) (Homo sapiens, UniProt Q53H47 342-453, I372M;C394R;L436M); assay: X-ray crystallography; Se-SAD phasing, 2.66 A; FA and competition: 50 mM Hepes pH 7.0, 150 mM NaCl, 1 mM DTT; temperature not stated. Crystals: 50 mM Hepes pH 7.5, 150 mM NaCl, 1 mM DTT; 0.1 M Mg formate, 15% PEG3350, 20 C; settings: protein: recombinant; tags: none (His-SUMO removed); chain copies: 2; 25 bp, 3' overhang 1 nt on each strand (A and T)
T5 sequence: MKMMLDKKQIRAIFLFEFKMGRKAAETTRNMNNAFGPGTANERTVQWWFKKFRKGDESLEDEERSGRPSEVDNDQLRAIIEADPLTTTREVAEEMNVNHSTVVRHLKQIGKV

[9] = molecular target: T6, SETMAR DBD C381R (Homo sapiens, UniProt Q53H47 342-453, C394R); assay: X-ray crystallography; 2.37 A; FA and competition: 50 mM Hepes pH 7.0, 150 mM NaCl, 1 mM DTT; temperature not stated. Crystals: 50 mM Hepes pH 7.5, 150 mM NaCl, 1 mM DTT; 0.1 M Mg formate, 15% PEG3350, 20 C; settings: protein: recombinant; tags: none (His-SUMO removed); chain copies: 2; 25 bp, 3' overhang 1 nt on each strand (A and T)
T6 sequence: T5 sequence with M31I, M95L

“SETMAR DNA-binding domain, residues 329 to 440 (C381R) (I359M) (L423M) (domain or fragment)” showed a stoichiometry N [1] of 2.

B1: rhodamine Hsmar1 TIR probe (dsDNA)
DNA 1: TTAGGTTGGTGCAAAAGTAATTGCGGTT
DNA 2: AACCGCAATTACTTTTGCACCAACCTAA
With B1 the Kd [2] was 42 ± 5 nM, the Kd [3] was 521 ± 65 nM and the Kd [4] was 485 ± 58 nM. The Kd [5] was 302 ± 47 nM and the Kd [6] was 53 ± 4 nM.

B2: Mos1 TIR (dsDNA)
DNA 1: TCAGGTGTACAAGTATGAAATGTCGTTT
DNA 2: AAACGACATTTCATACTTGTACACCTGA
B2: no binding [7].

B3: BrdU-substituted TIR crystallization duplex (dsDNA)
DNA 1: GGTTGGTGCAAAAGTAATTGCGGTTA
DNA 2: AACCGCAATTACTTTTGCACCAACCT
modifications: 5-bromodeoxyuridine replacing underlined Ts (positions not visible in text)
B3: binds [8].

B4: Hsmar1 TIR without sequence-specific binding sites (dsDNA)
DNA 1: TTAGGTTAATATAAAAGTAATTGTGGTT
DNA 2: AACCACAATTACTTTTATATTAACCTAA
B4: no binding [7].

B5: TIR crystallization duplex (dsDNA)
DNA 1: GGTTGGTGCAAAAGTAATTGCGGTTA
DNA 2: AACCGCAATTACTTTTGCACCAACCT
B5: binds [9].
